Data taken from IntAct's records for PubMed 11781573.

B1: Erythropoietin receptor (Homo sapiens), P19235 (parent)
chain: MDHLGASLWPQVGSLCLLLAGAAWAPPPNLPDPKFESKAALLAARGPEELLCFTERLEDLVCFWEEAASAGVGPGNYSFSYQLEDEPWKLCRLHQAPTARGAVRFWCSLPTADTSSFVPLELRVTAASGAPRYHRVIHINEVVLLDAPVGLVARLADESGHVVLRWLPPPETPMTSHIRYEVDVSAGNGAGSVQRVEILEGRTECVLSNLRGRTRYTFAVRARMAEPSFGGFWSAWSEPVSLLTPSDLDPLILTLSLILVVILVLLTVLALLSHRRALKQKIWPGIPSPESEFEGLFTTHKGNFQLWLYQNDGCLWWSPCTPFTEDPPASLEVLSERCWGTMQAVEPGTDDEGPLLEPVGSEHAQDTYLVLDKWLLPRNPPSEDLPGPGGSVDIVAMDEGSEASSCSSALASKPSPEGASAASFEYTILDPSSQLLRPWTLCPELPPTPPHLKYLYLVVSDSGISTDYSSGDSQGAQGGLSDGPYSNPYENSLIPAAEPLPPSYVACS
B2: Erythropoietin receptor (Homo sapiens), P19235 (parent)
chain: B1 chain
partner: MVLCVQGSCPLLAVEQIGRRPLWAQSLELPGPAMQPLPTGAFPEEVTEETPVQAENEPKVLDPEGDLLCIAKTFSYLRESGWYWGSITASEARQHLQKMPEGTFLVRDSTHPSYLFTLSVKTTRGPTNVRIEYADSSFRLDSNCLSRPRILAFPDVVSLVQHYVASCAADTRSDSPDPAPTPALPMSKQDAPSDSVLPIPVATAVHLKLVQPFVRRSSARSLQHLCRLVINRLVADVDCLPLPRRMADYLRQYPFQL

Variants of: B1
Conditions: with socs2_human SOCS2, O14508
socs2_human SOCS2, O14508, sequence (O14508 whole entry): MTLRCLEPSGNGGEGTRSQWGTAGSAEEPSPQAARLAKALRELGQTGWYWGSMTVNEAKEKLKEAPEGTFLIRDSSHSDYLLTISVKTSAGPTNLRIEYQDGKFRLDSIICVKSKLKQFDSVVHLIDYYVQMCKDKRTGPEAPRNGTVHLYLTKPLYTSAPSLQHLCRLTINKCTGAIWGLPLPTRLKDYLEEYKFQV

Variant	effect of a mutation on the interaction
Y426F	decreasing interaction

Variants of: B2
Conditions: with cish_mouse Cish

Variant	effect of a mutation on the interaction
Y426F	decreasing interaction
